In publication PMC8546699, “Ehrlichia chaffeensis TRP120 Is a Wnt Ligand Mimetic That Interacts with Wnt Receptors and Contains a Novel Repetitive Short Linear Motif That Activates Wnt Signaling” (mSphere, 2021):

T1: recombinant, full-length TRP120 (rTRP120-FL) (Ehrlichia chaffeensis, UniProt Q2GI62 1-548)
T1 construct: Ehrlichia chaffeensis tandem repeat protein TRP120, full-length gene cloned upstream of a 6xHis tag; Thioredoxin fusion from the vector pBAD/Thio-TOPO; also called rTRP12-FL; source: E. coli TOP10, pBAD/Thio-TOPO, purified (His-tag purification resin); not shown: His6, C-terminal, kept
T1 sequence: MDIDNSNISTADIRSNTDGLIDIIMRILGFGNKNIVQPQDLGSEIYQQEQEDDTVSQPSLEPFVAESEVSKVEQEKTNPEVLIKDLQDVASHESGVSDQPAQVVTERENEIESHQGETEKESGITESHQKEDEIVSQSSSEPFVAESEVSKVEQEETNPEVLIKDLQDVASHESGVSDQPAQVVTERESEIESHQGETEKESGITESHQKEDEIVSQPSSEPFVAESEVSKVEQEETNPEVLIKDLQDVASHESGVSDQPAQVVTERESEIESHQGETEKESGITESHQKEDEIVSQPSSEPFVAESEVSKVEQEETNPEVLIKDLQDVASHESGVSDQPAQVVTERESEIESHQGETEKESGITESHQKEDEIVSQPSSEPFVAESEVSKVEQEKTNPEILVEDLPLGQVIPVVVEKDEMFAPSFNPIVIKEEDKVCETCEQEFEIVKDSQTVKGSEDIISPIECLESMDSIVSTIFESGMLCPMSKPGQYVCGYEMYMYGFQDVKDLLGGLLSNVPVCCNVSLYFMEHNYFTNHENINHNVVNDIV

B1: recombinant Fzd5 extracellular domain (rFzd5-ECD) (domain or fragment, UniProt Q13467 27-238, looked up)
chain: ASKAPVCQEITVPMCRGIGYNLTHMPNQFNHDTQDEAGLEVHQFWPLVEIQCSPDLRFFLCSMYTPICLPDYHKPLPPCRSVCERAKAGCSPLMRQYGFAWPERMSCDRLPVLGRDAEVLCMDYNRSEATTAPPRPFPAKPTLPGPPGAPASGGECPAGGPFVCKCREPFVPILKESHPLYNKVRTGQVPNCAVPCYQPSFSADERTFATFW
notes: Frizzled-5, recombinant extracellular domain (methods: 'cysteine-rich domain-truncated protein'); commercial Frizzled ECD proteins are often Fc chimeras and may be mouse (surmise); also called Fzd5-CRD; source: bought: R&D Systems

Key:
[1] = target: rTRP120-tandem repeat domain truncate construct (rTRP120-TRD) (Ehrlichia chaffeensis) (UniProt Q2GI62); assay: SPR; His-tagged rTRP120-FL or rTRP120-TRD (0.1 µM) captured on Ni-NTA sensor chip; rFzd-ECD 0 to 1,600 nM flowed over; Biacore T100; 100 mM NaPO4 pH 7.4, 400 mM NaCl, 40 µM EDTA, 0.005% Tween 20; 1:1 fit
[2] = target: T1, recombinant, full-length TRP120 …; assay: as above; settings: both partners purified

| Molecule | Kd [1] [µM] | Kd [2] [µM] |
| --- | --- | --- |
| recombinant Fzd5 extracellular domain (rFzd5-ECD) (from UniProt Q13467 27-238) (domain or fragment) | 1.35 | – |
| B1 | – | 46.3 |
